Assay results reported in paper PMC5302063, “In vivo mapping of a dynamic ribonucleoprotein granule interactome in early Drosophila embryos” (FEBS Open Bio, 2016).

Biological target: T1, recombinant Aub with N-terminal His-, Myc- and 3xFLAG-tags (Drosophila, UniProt O76922 1-866)
T1 construct: Aubergine (Aub), Drosophila; aub cDNA cloned into pFastBac/NT-TOPO; also called FLAG-tagged Aub; Aubergine; source: Sf9 (bacmid from pFastBac/NT-TOPO), purified (anti-c-Myc beads, c-Myc peptide elution); not shown: Myc, N-terminal, kept; 3xFLAG, N-terminal, kept
T1 sequence (looked up): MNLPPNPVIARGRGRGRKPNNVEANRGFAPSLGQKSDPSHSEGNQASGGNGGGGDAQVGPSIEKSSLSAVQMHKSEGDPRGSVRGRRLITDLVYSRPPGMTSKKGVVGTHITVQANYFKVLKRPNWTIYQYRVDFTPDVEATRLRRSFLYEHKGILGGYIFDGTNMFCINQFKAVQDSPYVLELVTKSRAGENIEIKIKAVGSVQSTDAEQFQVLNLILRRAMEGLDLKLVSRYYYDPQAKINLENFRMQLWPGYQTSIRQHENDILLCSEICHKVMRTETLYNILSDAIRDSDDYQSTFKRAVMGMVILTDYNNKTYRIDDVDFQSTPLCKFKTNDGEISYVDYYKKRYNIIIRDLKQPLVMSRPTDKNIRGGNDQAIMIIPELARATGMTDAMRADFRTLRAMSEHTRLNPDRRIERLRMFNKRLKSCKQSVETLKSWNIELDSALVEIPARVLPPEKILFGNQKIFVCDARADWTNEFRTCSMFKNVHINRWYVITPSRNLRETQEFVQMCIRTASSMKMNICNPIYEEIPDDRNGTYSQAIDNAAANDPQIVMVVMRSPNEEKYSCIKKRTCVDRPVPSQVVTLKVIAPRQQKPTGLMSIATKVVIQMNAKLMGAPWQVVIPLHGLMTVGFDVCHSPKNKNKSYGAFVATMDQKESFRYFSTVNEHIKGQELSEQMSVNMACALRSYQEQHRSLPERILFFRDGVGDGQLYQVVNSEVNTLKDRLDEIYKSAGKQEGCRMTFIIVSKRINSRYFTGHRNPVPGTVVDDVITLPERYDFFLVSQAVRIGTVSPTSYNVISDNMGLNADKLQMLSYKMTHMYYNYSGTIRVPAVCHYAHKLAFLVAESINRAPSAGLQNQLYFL
Experiment: pull-down; purified FLAG-tagged Aub or FLAG-GFP control bound to anti-FLAG beads; purified Myc-eIF4A added in PBS, 0.05% IGEPAL CA-630, 4 °C, 60 min; western blot with anti-c-Myc
Conditions: both partners purified

binding result: binds
B1: Myc-tagged eIF4A (enzyme, Drosophila, UniProt Q02748 1-403, looked up)
chain: MDDRNEIPQDGPASMEPEGVIESTWHEVYDNFDDMNLREELLRGIYGYGFEKPSAIQQRAIIPCVRGRDVIAQAQSGTGKTATFSIAILQQIDTSIRECQALILAPTRELATQIQRVVMALGEYMKVHSHACIGGTNVREDARILESGCHVVVGTPGRVYDMINRKVLRTQYIKLFVLDEADEMLSRGFKDQIQDVFKMLPPDVQVILLSATMPPDVLEVSRCFMRDPVSILVKKEELTLEGIKQFYVNVKQENWKLGTLCDLYDTLSITQSVIFCNTRRKVDQLTQEMSIHNFTVSAMHGDMEQRDREVIMKQFRSGSSRVLITTDLLARGIDVQQVSLVINYDLPSNRENYIHRIGRGGRFGRKGVAINFITDDDRRILKDIEQFYHTTIEEMPANIADLI
notes: eukaryotic translation initiation factor 4A (eIF4A), ATP-dependent RNA helicase, Drosophila; also called Myc-eIF4A; eukaryotic translation initiation factor 4A; source: S2 cells, purified (anti-c-Myc beads, c-Myc peptide elution)
